Experimental data as given in paper PMC8191314 (The Journal of Biological Chemistry, 2021).

Target: the molecule itself
Test: cross-linking

B1: MRCKβ in extracts from HeLa cells (enzyme, UniProt Q9Y5S2 1-1711, looked up)
chain: MSAKVRLKKLEQLLLDGPWRNESALSVETLLDVLVCLYTECSHSALRRDKYVAEFLEWAKPFTQLVKEMQLHREDFEIIKVIGRGAFGEVAVVKMKNTERIYAMKILNKWEMLKRAETACFREERDVLVNGDCQWITALHYAFQDENHLYLVMDYYVGGDLLTLLSKFEDKLPEDMARFYIGEMVLAIDSIHQLHYVHRDIKPDNVLLDVNGHIRLADFGSCLKMNDDGTVQSSVAVGTPDYISPEILQAMEDGMGKYGPECDWWSLGVCMYEMLYGETPFYAESLVETYGKIMNHEERFQFPSHVTDVSEEAKDLIQRLICSRERRLGQNGIEDFKKHAFFEGLNWENIRNLEAPYIPDVSSPSDTSNFDVDDDVLRNTEILPPGSHTGFSGLHLPFIGFTFTTESCFSDRGSLKSIMQSNTLTKDEDVQRDLEHSLQMEAYERRIRRLEQEKLELSRKLQESTQTVQSLHGSSRALSNSNRDKEIKKLNEEIERLKNKIADSNRLERQLEDTVALRQEREDSTQRLRGLEKQHRVVRQEKEELHKQLVEASERLKSQAKELKDAHQQRKLALQEFSELNERMAELRAQKQKVSRQLRDKEEEMEVATQKVDAMRQEMRRAEKLRKELEAQLDDAVAEASKERKLREHSENFCKQMESELEALKVKQGGRGAGATLEHQQEISKIKSELEKKVLFYEEELVRREASHVLEVKNVKKEVHDSESHQLALQKEILMLKDKLEKSKRERHNEMEEAVGTIKDKYERERAMLFDENKKLTAENEKLCSFVDKLTAQNRQLEDELQDLAAKKESVAHWEAQIAEIIQWVSDEKDARGYLQALASKMTEELEALRSSSLGSRTLDPLWKVRRSQKLDMSARLELQSALEAEIRAKQLVQEELRKVKDANLTLESKLKDSEAKNRELLEEMEILKKKMEEKFRADTGLKLPDFQDSIFEYFNTAPLAHDLTFRTSSASEQETQAPKPEASPSMSVAASEQQEDMARPPQRPSAVPLPTTQALALAGPKPKAHQFSIKSFSSPTQCSHCTSLMVGLIRQGYACEVCSFACHVSCKDGAPQVCPIPPEQSKRPLGVDVQRGIGTAYKGHVKVPKPTGVKKGWQRAYAVVCDCKLFLYDLPEGKSTQPGVIASQVLDLRDDEFSVSSVLASDVIHATRRDIPCIFRVTASLLGAPSKTSSLLILTENENEKRKWVGILEGLQSILHKNRLRNQVVHVPLEAYDSSLPLIKAILTAAIVDADRIAVGLEEGLYVIEVTRDVIVRAADCKKVHQIELAPREKIVILLCGRNHHVHLYPWSSLDGAEGSFDIKLPETKGCQLMATATLKRNSGTCLFVAVKRLILCYEIQRTKPFHRKFNEIVAPGSVQCLAVLRDRLCVGYPSGFCLLSIQGDGQPLNLVNPNDPSLAFLSQQSFDALCAVELESEEYLLCFSHMGLYVDPQGRRARAQELMWPAAPVACSCSPTHVTVYSEYGVDVFDVRTMEWVQTIGLRRIRPLNSEGTLNLLNCEPPRLIYFKSKFSGAVLNVPDTSDNSKKQMLRTRSKRRFVFKVPEEERLQQRREMLRDPELRSKMISNPTNFNHVAHMGPGDGMQVLMDLPLSAVPPSQEERPGPAPTNLARQPPSRNKPYISWPSSGGSEPSVTVPLRSMSDPDQDFDKEPDSDSTKHSTPSNSSNPSGPPSPNSPHRSQLPLEGLEQPACDT
  stoichiometry N: 2
